According to the supplement of paper PMC10724198:
± gives the standard deviation of the averaged measurements.

Key:
[1] = system: Saccharomyces cerevisiae; experiment: protein stability index of tFT-peptide fusion (C-terminal peptide) (PSI (0-1 scale)); higher = more stable (slower turnover)
Description: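 MPS profiling in S. cerevisiae of the tFT-X12 degron library: putative degron peptides plus stable controls, 12 aa, fused to the C-terminus of a sfGFP-mCherry timer. Cells are FACS-sorted into 8 mCherry/sfGFP bins and deep-sequenced. PSI runs from 0 (unstable) to 1 (stable). Backgrounds are wild type, das1Δ and doa10Δ at 30 °C, and wild type, das1Δ, cdc34-1 and cdc53-1 at 37 °C; 2-3 technical replicates each.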

[2] = system: Saccharomyces cerevisiae; experiment: as above; details: genetic background: wild type; temperature: 30 C
[3] = genetic background: cdc34-1, temperature: 37 C
[4] = genetic background: cdc53-1, temperature: 37 C
[5] = genetic background: das1 deletion, temperature: 30 C
[6] = genetic background: das1 deletion, temperature: 37 C
[7] = genetic background: doa10 deletion, temperature: 30 C
[8] = genetic background: wild type, temperature: 30 C
[9] = genetic background: wild type, temperature: 37 C
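Note: PSI is a weighted mean of sequencing reads over stability bins, variants kept only with over 10 reads, mCherry proximal and sfGFP distal, peptide attached via GGGS linker.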

Row | Sequence | protein stability index [1, 3] | protein stability index [1, 4] | protein stability index [1, 5] | protein stability index [1, 6] | protein stability index [1, 7] | protein stability index [1, 8] | protein stability index [1, 9] | protein stability index [2]
1 | RVVITYLVLSNR | 0.648 ± 0.06 | 0.686 ± 0.013 | 0.509 ± 0.018 | 0.646 ± 0.011 | 0.522 ± 0.039 | 0.505 ± 0.018 | 0.6445 ± 0.0056 | 0.547 ± 0.094
2 | VDSTCLLITLLA | 0.534 ± 0.1 | 0.4893 ± 0.0016 | 0.348 ± 0.036 | 0.506 ± 0.0053 | 0.245 ± 0.0068 | 0.296 ± 0.023 | 0.456 ± 0.02 | 0.41 ± 0.0047
3 | GGWSLFCIVVVV | 0.111 ± 0.039 | 0.171 ± 0.0092 | 0.179 ± 0.029 | 0.306 ± 0.0031 | 0.167 ± 0.013 | 0.173 ± 0.035 | 0.253 ± 0.0092 | 0.268 ± 0.074
4 | LFGRVLSGILSV | 0.687 ± 0.04 | 0.721 ± 0.015 | 0.567 ± 0.019 | 0.702 ± 0.028 | 0.474 ± 0.014 | 0.524 ± 0.037 | 0.68 ± 0.011 | 0.523 ± 0.06
5 | SPSSLPRPLFLS | 0.592 ± 0.015 | 0.726 ± 0.017 | 0.616 ± 0.015 | 0.7356 ± 0.0018 | 0.138 ± 0.033 | 0.163 ± 0.02 | 0.289 ± 0.026 | 0.261 ± 0.053
6 | GFSEGRLTIPVY | 0.453 ± 0.025 | 0.4949 ± 0.0041 | 0.343 ± 0.04 | 0.5097 ± 0.0018 | 0.2949 ± 0.0027 | 0.345 ± 0.06 | 0.476 ± 0.01 | 0.455 ± 0.047
7 | ISHLQCFFVVML | 0.439 ± 0.029 | 0.507 ± 0.025 | 0.355 ± 0.026 | 0.563 ± 0.016 | 0.3759 ± 0.0013 | 0.346 ± 0.034 | 0.485 ± 0.0089 | 0.489 ± 0.042
8 | WFLFVLCAWGFF | 0.295 ± 0.026 | 0.339 ± 0.0033 | 0.263 ± 0.013 | 0.374 ± 0.039 | 0.263 ± 0.014 | 0.241 ± 0.012 | 0.3042 ± 0.00084 | 0.135 ± 0.0012
9 | SCCLLICIFFIF | 0.317 ± 0.045 | 0.408 ± 0.065 | 0.306 ± 0.015 | 0.391 ± 0.064 | 0.227 ± 0.0076 | 0.231 ± 0.029 | 0.33 ± 0.0056 | 0.297 ± 0.0023
10 | FFRPWRLVGCLV | 0.263 ± 0.0038 | 0.312 ± 0.011 | 0.265 ± 0.024 | 0.3692 ± 0.0036 | 0.189 ± 0.017 | 0.215 ± 0.018 | 0.266 ± 0.02 | 0.331 ± 0.065
11 | HTYSFRLLFIFL | 0.378 ± 0.031 | 0.456 ± 0.016 | 0.328 ± 0.035 | 0.4762 ± 0.0044 | 0.381 ± 0.013 | 0.321 ± 0.022 | 0.45677 ± 0.00022 | 0.388 ± 0.05
12 | RRVLVVPCIWHM | 0.653 ± 0.031 | 0.73 ± 0.011 | 0.604 ± 0.015 | 0.673 ± 0.048 | 0.174 ± 0.026 | 0.223 ± 0.022 | 0.416 ± 0.022 | 0.327 ± 0.0065
13 | QVSHLFAAVQLA | 0.6103 ± 0.0049 | 0.687 ± 0.018 | 0.555 ± 0.0081 | 0.65 ± 0.0091 | 0.337 ± 0.021 | 0.364 ± 0.051 | 0.573 ± 0.011 | 0.4485 ± 0.00088
14 | SFQLVFLCVLIW | 0.136 ± 0.0088 | 0.129 ± 0.008 | 0.155 ± 0.024 | 0.237 ± 0.0049 | 0.203 ± 0.011 | 0.154 ± 0.0091 | 0.184 ± 0.011 | 0.218 ± 0.029
15 | FFSLMFVFLTVF | 0.113 ± 0.018 | 0.131 ± 0.043 | 0.201 ± 0.03 | 0.276 ± 0.015 | 0.192 ± 0.0063 | 0.164 ± 0.02 | 0.23 ± 0.012 | 0.278 ± 0.033
16 | SIIRHLFHPSST | 0.67 ± 0.026 | 0.7184 ± 0.0046 | 0.643 ± 0.0091 | 0.72688 ± 9e-05 | 0.65 ± 0.018 | 0.659 ± 0.03 | 0.695 ± 0.018 | 0.709 ± 0.013
17 | ETQKEKRENAKP | 0.649 ± 0.028 | 0.70222 ± 0.00044 | 0.646 ± 0.032 | 0.71 ± 0.035 | 0.6492 ± 0.0039 | 0.623 ± 0.016 | 0.677 ± 0.024 | 0.713 ± 0.0091
18 | VRFLSLNVLFFC | 0.54 ± 0.032 | 0.625 ± 0.022 | 0.482 ± 0.025 | 0.628 ± 0.028 | 0.222 ± 0.0066 | 0.244 ± 0.029 | 0.48 ± 0.0046 | 0.38 ± 0.033
19 | SSVLWVMFVFFY | 0.313 ± 0.026 | 0.387 ± 0.0063 | 0.309 ± 0.058 | 0.442 ± 0.0026 | 0.264 ± 0.0091 | 0.253 ± 0.067 | 0.387 ± 0.027 | 0.436 ± 0.058
20 | RAPPPSSLLSPP | 0.6612 ± 0.0063 | 0.724 ± 0.016 | 0.6499 ± 0.0057 | 0.718 ± 0.027 | 0.687 ± 0.0087 | 0.671 ± 0.029 | 0.706 ± 0.037 | 0.402 ± 0.013
21 | LSGIILGWSVSG | 0.755 ± 0.047 | 0.76 ± 0.0077 | 0.6302 ± 0.0058 | 0.735 ± 0.047 | 0.6308 ± 0.005 | 0.645 ± 0.0062 | 0.7292 ± 0.003 | 0.676 ± 0.034
